Measured values from patent US12303551B2, “Cellular immunotherapy compositions and uses thereof” (CERO THERPEUTICS HOLDINGS, INC., priority 2018, dated 2025).

Tested on: HPV+ SCC152 target cells
Experiment: Mass cytometry (CyTOF) viSNE marker analysis of CER-transduced CD4+ T cells after antigen encounter
Format: cell-based
Settings: for viSNE islands expressing intracellular marker IFNγ / viSNE islands expressing T cell activation marker CD69: CER-transduced CD4+ T cells co-cultured with E7 TCR CD8+ T cells and SCC152; for memory formation after antigen encounter: CER-transduced CD4+ T cells; for viSNE islands expressing naïve T cell marker CD45RA within the CCR7+ population: compared to controls
Text: FIG. 64A-64B show viSNE maps of mass cytometry data of CER-transduced CD4+ T cells upon antigen encounter. CER-transduced CD4+ T cells were co-cultured with E7-specific TCR-transduced CD8+ T cells and HPV+ SCC152 target cells and then interrogated by mass cytometry (CyTof). Intact CER-CD4+ T cells are shown in plots displaying tSNE1 and tSNE2 axes. Nine intracellular markers were used for the viSNE analysis. Each dot represents a single cell. […] FIG. 64B: Populations of CD4^+ T cells were generated using a clustering algorithm from all 32 markers and overlaid onto the viSNE map.
(§1) FIGS. 65A-65B show viSNE maps of mass cytometry data of CER-expressing CD4+ T cells upon antigen encounter. CER-transduced CD4+ T cells were co-cultured with E7-specific TCR-transduced CD8+ T cells and HPV+ SCC152 target cells and then interrogated by mass cytometry (CyTof). Intact CER-CD4+ T cells are shown in plots displaying tSNE1 and tSNE2 axes. Eighteen cell surface markers were used for the viSNE analysis. Each dot represents a single cell. FIG. 65A: Populations of CD4^+ T cells were generated using a clustering algorithm from all 18 markers and overlaid onto the viSNE map. […] FIG. 65B: Color plots show the phenotype across viSNE ‘islands.’ Red represents high expression and blue represents low expression for each marker. Highlighted region indicates cells expressing T cell activation marker CD69.
as §1, with “FIGS. 66A-66B” for “FIGS. 65A-65B”, “FIG. 66A:” for “FIG. 65A:”, “FIG. 66B:” for “FIG. 65B:”, “cells the naïve” for “cells expressing”, “cell” for “cell activation”, “marker CD45RA.” for “marker CD69.”
CD4+ T cells were transduced with lentiviral vector comprising CER104, CER116, or CER117 nucleic acid. CER104 (SEQ ID NO:139) comprises a Tim4 binding domain, Tim4 transmembrane domain, and an engulfment signaling domain comprising a primary engulfment signaling domain comprising a TLR8 signaling domain and a secondary engulfment signaling domain comprising a DAP12 signaling domain. CER116 (SEQ ID NO:152) comprises a Tim4 binding domain, Tim4 transmembrane domain, and an engulfment signaling domain comprising a primary engulfment signaling domain comprising a TRAF6 signaling domain and a secondary engulfment signaling domain comprising a TLR8 signaling domain. CER117 (SEQ ID NO:153) comprises a Tim4 binding domain, Tim4 transmembrane domain, and an engulfment signaling domain comprising a primary engulfment signaling domain comprising a TLR8 signaling domain and a secondary engulfment signaling domain comprising a TRAF6 signaling domain. CER-transduced CD4+ T cells were co-cultured with E7 TCR-transduced CD8+ T cells and HPV+ SCC152 target cells and interrogated by mass cytometry (CyTOF) with viSNE for visualization of high dimensional single cell data (FIGS. 64-66). Intact CER-transduced CD4+ T cells are shown in plots displaying tSNE1 (horizontal) and tSNE2 (vertical) axes. 27 intracellular markers were used for the viSNE analysis. Each dot represents a single cell. […] Red represents high expression and blue represents low expression for each marker. Populations of CD4^+ T cells were generated using a clustering algorithm from all 27 markers and overlaid onto the viSNE map. […] Populations of CD4^+ T cells were generated using a clustering algorithm from all 18 markers and overlaid onto the viSNE map (FIG. 65A). […]

| Molecule | viSNE islands expressing intracellular marker IFNγ | memory formation after antigen encounter | viSNE islands expressing T cell activation marker CD69 | viSNE islands expressing naïve T cell marker CD45RA within the CCR7+ population |
| --- | --- | --- | --- | --- |
| CER117: Chimeric engulfment receptor: Tim4 binding, Tim4 transmembrane, TLR8 and TRAF6 signaling; SEQ ID NO: 153 (protein, CER117, amino acids 1-22 are signal peptide) MSKGLLLLWLVTELWWLYLTPAASEDTIIGFLGQPVTLPCHYLSWSQSRNSMCWGKGSCPNSKCNAELLRTDGTRIISRKSTKYTLLGKVQFGEVSLTISNTNRGDSGVYCCRIEVPGWFNDVKKNVRLELRRATTTKKPTTTTRPTTTPYVTTTTPELLPTTVMTTSVLPTTTPPQTLATTAFSTAVTTCPSTTPGSFSQETTKGSAFTTESETLPASNHSQRSMMTISTDIAVLRPTGSNPGILPSTSQLTTQKTTLTTSESLQKTTKSHQINSRQTILIIACCVGFVLMVLLFLAFLHHLFYWDVWFIYNVCLAKVKGYRSLSTSQTFYDAYISYDTKDASVTDWVINELRYHLEESRDKNVLLCLEERDWDPGLAIIDNLMQSINQSKKTVFVLTKKYAKSWNFKTAFYLALQRLMDENMDVIIFILLEPVLQHSQYLRLRQRICKSSILQWPDNPKAEGLFWQTLRNVVLTENDSRYNNMYVDSIKQYMSLLNCENSCGSSQSESDCCVAMASSCSAVTKDDSVGGTASTGNLSSSFMEEIQGYDVEFDPPLESKYECPICLMALREAVQTPCGHRFCKACIIKSIRDAGHKCPVDNEILLENQLFPDNFAKREILSLMVKCPNEGCLHKMELRHLEDHQAHCEFALMDCPQCQRPFQKFHINIHILKDCPRRQVSCDNCAASMAFEDKEIHDQNCPLANVICEYCNTILIREQMPNHYDLDCPTAPIPCTFSTFGCHEKMQRNHLARHLQENTQSHMRMLA | enrichment of islands expressing the intracellular marker IFNγ | – | – | – |
| CER104: Chimeric engulfment receptor: Tim4 binding, Tim4 transmembrane, TLR8 and DAP12 signaling; SEQ ID NO: 139 (protein, CER104, amino acids 1-22 are signal peptide) MSKGLLLLWLVTELWWLYLTPAASEDTIIGFLGQPVTLPCHYLSWSQSRNSMCWGKGSCPNSKCNAELLRTDGTRIISRKSTKYTLLGKVQFGEVSLTISNTNRGDSGVYCCRIEVPGWFNDVKKNVRLELRRATTTKKPTTTTRPTTTPYVTTTTPELLPTTVMTTSVLPTTTPPQTLATTAFSTAVTTCPSTTPGSFSQETTKGSAFTTESETLPASNHSQRSMMTISTDIAVLRPTGSNPGILPSTSQLTTQKTTLTTSESLQKTTKSHQINSRQTILIIACCVGFVLMVLLFLAFLHHLFYWDVWFIYNVCLAKVKGYRSLSTSQTFYDAYISYDTKDASVTDWVINELRYHLEESRDKNVLLCLEERDWDPGLAIIDNLMQSINQSKKTVFVLTKKYAKSWNFKTAFYLALQRLMDENMDVIIFILLEPVLQHSQYLRLRQRICKSSILQWPDNPKAEGLFWQTLRNVVLTENDSRYNNMYVDSIKQYYFLGRLVPRGRGAAEAATRKQRITETESPYQELQGQRSDVYSDLNTQRPYYK | enrichment of islands expressing the intracellular marker IFNγ | associated with memory formation after antigen encounter | enrichment of islands expressing the T cell activation marker CD69 | loss of islands expressing the naïve T cell marker CD45RA |
| CER116: Chimeric engulfment receptor: Tim4 binding, Tim4 transmembrane, TRAF6 and TLR8 signaling; SEQ ID NO: 152 (protein, CER116, amino acids 1-22 are signal peptide) MSKGLLLLWLVTELWWLYLTPAASEDTIIGFLGQPVTLPCHYLSWSQSRNSMCWGKGSCPNSKCNAELLRTDGTRIISRKSTKYTLLGKVQFGEVSLTISNTNRGDSGVYCCRIEVPGWFNDVKKNVRLELRRATTTKKPTTTTRPTTTPYVTTTTPELLPTTVMTTSVLPTTTPPQTLATTAFSTAVTTCPSTTPGSFSQETTKGSAFTTESETLPASNHSQRSMMTISTDIAVLRPTGSNPGILPSTSQLTTQKTTLTTSESLQKTTKSHQINSRQTILIIACCVGFVLMVLLFLAFLMSLLNCENSCGSSQSESDCCVAMASSCSAVTKDDSVGGTASTGNLSSSFMEEIQGYDVEFDPPLESKYECPICLMALREAVQTPCGHRFCKACIIKSIRDAGHKCPVDNEILLENQLFPDNFAKREILSLMVKCPNEGCLHKMELRHLEDHQAHCEFALMDCPQCQRPFQKFHINIHILKDCPRRQVSCDNCAASMAFEDKEIHDQNCPLANVICEYCNTILIREQMPNHYDLDCPTAPIPCTFSTFGCHEKMQRNHLARHLQENTQSHMRMLAHHLFYWDVWFIYNVCLAKVKGYRSLSTSQTFYDAYISYDTKDASVTDWVINELRYHLEESRDKNVLLCLEERDWDPGLAIIDNLMQSINQSKKTVFVLTKKYAKSWNFKTAFYLALQRLMDENMDVIIFILLEPVLQHSQYLRLRQRICKSSILQWPDNPKAEGLFWQTLRNVVLTENDSRYNNMYVDSIKQY | enrichment of islands expressing the intracellular marker IFNγ | associated with memory formation after antigen encounter | enrichment of islands expressing the T cell activation marker CD69 | loss of islands expressing the naïve T cell marker CD45RA |
